Holding throughout (settings): both partners purified
Assay [1] deals with hexa-His-tagged BRD4 extra-terminal domain (BRD4/ET) (human, UniProt O60885-1 589-676). The assay can be described thus: peptide or protein array; cellulose SPOT peptide arrays probed with hexa-His-tagged BRD4 domains, detected with HRP-conjugated anti-His antibody.
Assay [2] concerns the target BRD4 second bromodomain (BD2), D334-E460 (human, UniProt O60885-1 334-460). Put plainly: ITC; peptide in the syringe titrated into protein in the cell; 15 °C; 50 mM HEPES pH 7.5, 150 mM NaCl; single binding site model. (ITC needs no label: the signal is the heat of the interaction.)
The target of assay [3] is BRD4 first bromodomain (BD1), N44-E168 (human, UniProt O60885-1 44-168). The description is as above.

By Kd is commonly meant the equilibrium constant for the complex coming apart. The term stoichiometry N denotes the number of molecules, sites or subunits per partner or assembly.

Where no end group is shown, it is not given here.

B1: RPS26 peptide region, residues 31-48 (SPOT) (peptide, UniProt P62854 31-48, looked up)
peptide: PKDKAIKKFVIRNIVEAA
notes: RPS26 residues 31-48, motif printed as KFVIK; source: synthesised on cellulose membrane (SPOT)
B1: the binding result in assay [1] is listed as “binds”.

B2: WHSC1L1 peptide, amino acids 147–162 (SPOT) (peptide, UniProt Q9BZ95 147-162, looked up)
peptide: KTGSPEIKLKITKTIQ
notes: source: synthesised on cellulose membrane (SPOT)
Take B2: the binding result in assay [1] is given as “binds”.

B3: FOXN3 K426ac/K429ac peptide (peptide)
chain: HFAK(Ac)ARK(Ac)VPS
In the case of B3, in assay [2], binding was characterised by a dissociation constant (Kd) of 25.7 ± 1.8 µM and the “stoichiometry N” value was 0.59 ± 0.018. For the same molecule, in assay [3], the Kd is 37.8 ± 3.61 µM and the “stoichiometry N” value came to 0.62 ± 0.311.

B4: DMTF1 K147ac/K150ac peptide (peptide)
chain: LTNK(Ac)GHK(Ac)WKQ
Consider B4, for which, in assay [2], the Kd was determined as 29.4 ± 1.84 µM and the “stoichiometry N” value was 1.1 ± 0.031. In addition, in assay [3], the Kd was found to be 70.4 ± 3 µM and the “stoichiometry N” value is 0.99 ± 0.061.

B5: FOXO3 K259ac/K262ac peptide (peptide)
chain: NSNK(Ac)YTK(Ac)SRG
In the case of B5, in assay [3], the Kd is 158 ± 20.1 µM and the “stoichiometry N” value is 0.58 ± 0.385.

B6: FOXD3 K235ac/K238ac peptide (peptide)
chain: RRRK(Ac)RFK(Ac)RHQ
With B6, in assay [2], binding was put at a Kd of 7.75 ± 0.12 µM and the “stoichiometry N” value was found to be 0.75 ± 0.029. In assay [3], the Kd came out at 63.6 ± 1.6 µM and the “stoichiometry N” value is 0.64 ± 0.026.

B7: FOXO3 K242ac/K245ac peptide (peptide)
chain: DGGK(Ac)SGK(Ac)APR
On to B7, for which, in assay [2], the Kd is 44.4 ± 2.89 µM and the “stoichiometry N” value came to 0.64 ± 0.021. Besides, in assay [3], the Kd came to 16.4 ± 0.5 µM and the “stoichiometry N” value was 0.49 ± 0.005.

B8: PTEN K125ac/K128ac peptide (peptide)
chain: IHCK(Ac)AGK(Ac)GRT
With B8, the Kd in assay [2] was 44.8 ± 3.03 µM; in assay [3], 137 ± 16.9 µM. The entries for the “stoichiometry N” value in assay [2] and in assay [3] were 0.6 ± 0.021 and 0.81 ± 0.082, respectively.

Values taken from article PMC6375729 (Molecular Cell, 2019).
